Article PMC9426568, “Glucose-1,6-Bisphosphate, a Key Metabolic Regulator, Is Synthesized by a Distinct Family of α-Phosphohexomutases Widely Distributed in Prokaryotes” (mBio, 2022)

T1: Sll0726 (Synechocystis sp. PCC 6803, UniProt P74643)
T1 construct: gene pgm; recombinant, Strep-tagged, expressed in E. coli Rosetta-gami (DE3), purified
T1 sequence (P74643 1-567): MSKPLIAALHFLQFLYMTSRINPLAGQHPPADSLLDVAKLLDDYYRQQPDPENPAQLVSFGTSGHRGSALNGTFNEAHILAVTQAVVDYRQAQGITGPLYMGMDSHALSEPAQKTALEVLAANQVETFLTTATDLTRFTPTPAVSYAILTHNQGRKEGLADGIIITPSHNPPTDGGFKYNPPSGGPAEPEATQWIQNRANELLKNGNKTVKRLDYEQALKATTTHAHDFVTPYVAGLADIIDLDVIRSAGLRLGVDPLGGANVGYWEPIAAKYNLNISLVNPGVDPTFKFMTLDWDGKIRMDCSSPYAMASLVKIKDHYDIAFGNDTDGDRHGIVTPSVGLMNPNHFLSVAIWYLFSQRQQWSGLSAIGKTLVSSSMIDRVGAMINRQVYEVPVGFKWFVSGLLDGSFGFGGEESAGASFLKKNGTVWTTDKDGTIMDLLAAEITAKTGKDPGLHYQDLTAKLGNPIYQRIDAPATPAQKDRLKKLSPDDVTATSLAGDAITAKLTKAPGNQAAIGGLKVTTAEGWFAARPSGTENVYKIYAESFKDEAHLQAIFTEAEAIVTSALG

B1: Slr1334 (Synechocystis sp. PCC 6803 substr. Kazusa) (protein)
chain: MVYTPAPIKFGTDGWRGVIAAEFTFERVVLVAAAAAQVLAAEFGSSGREHRLIVGYDRRFMAEQFALLVAQTVQELGFEVWLSESYAPTPAFSWAAHHENALGALVLTASHNPANYLGLKVKGAFGGSVGSDVTEKIEAQLQNSLPQPQAGGSLQYFDPWPSYCQGLQAKVNVQPIREAVQQGKLRVFADVMHGAAASGLERLLGCPIDEINGDRDPLFGGASPEPLPKYVPKLLAALQTAAKAGGPELRVGLIFDGDADRIAAVDGQGNFLSSQGLIPILIYHLATQKGLQGEIVKTVSGSDLIPKLAELYGIPLTETAIGYKYIADRMLTSPVLIGGEESGGIGYGGHIPERDALLSALYVLETVVQSQQDISEQYGRLQEKVCFVSEYDRIDLPLASMDVRTALVQTLNENPLTAIAGEQVTDLLTTDGYKFRMAGGGWLLIRFSGTEPLLRLYCEAPTSSRVQTVLHWAKDWANGVTPAKPAQSSH
notes: recombinant, expressed in E. coli Rosetta-gami (DE3), purified
B2: Sll0726 (Synechocystis sp. PCC 6803 substr. Kazusa) (protein)
chain: T1 sequence (P74643 1-567)
notes: recombinant, Strep-tagged, expressed in E. coli Rosetta-gami (DE3), purified

Experiments:
[1] = target: T1, Sll0726; experiment: G6PDH-coupled PGM assay, NADPH at […] nm; format: biochemical; settings: inhibitor, 100 μM, varied Glc-1P, without Glc-1,6-BP; 10 mM MgCl2, pH 7.5, 30°C
[2] = substrate: O=P(O)(O)OC[C@H]1O[C@H](OP(=O)(O)O)[C@H](O)[C@@H](O)[C@@H]1O; experiment: purified protein; format: biochemical, Synechocystis sp. PCC 6803; settings: co-substrate 0.5 mM Frc-6P, 10 mM MgCl2, 150 mM KCl, HEPES-KOH pH 7.5, 30°C, lowest measurable concentration already saturating
[3] = substrate: O=P(O)(O)O[C@H]1O[C@H](CO)[C@@H](O)[C@H](O)[C@H]1O; experiment: purified protein; format: biochemical, Synechocystis sp. PCC 6803; settings: with 60 μM Glc-1,6-BP (activator), 10 mM MgCl2, 150 mM KCl, HEPES-KOH pH 7.5, 30°C

| Molecule | G6PDH-coupled PGM assay, NADPH at 340 nm [1] | kcat [2] [s⁻¹] | kcat/Km [2] [M⁻¹ s⁻¹] | Km [3] [mM] | kcat [3] [s⁻¹] | kcat/Km [3] [M⁻¹ s⁻¹] |
| --- | --- | --- | --- | --- | --- | --- |
| O=P(O)(O)OC[C@H]1OC(O)(COP(=O)(O)O)[C@@H](O)[C@@H]1O (stereo partly drawn) [Frc-1,6-BP] | effect of different concentrations of Frc-1,6-BP on Sll0726 and observed major inhibition | – | – | – | – | – |
| B1 | – | 1.2 ± 0.03 | 600000 | 0.09 ± 0.02 | 14.4 ± 0.7 | 158000 |
| B2 | – | – | – | 0.19 ± 0.04 | 415 ± 30.6 | 3.04e+06 |
